Results on 43 variants are retold here after the Human Domainome abundance scans (Beltran et al. 2025).

B1: Ankyrin repeat and SAM domain-containing protein 6, residues 774 to 836; numbered along this chain, Q68DC2 (parent)
chain: DEDELTGILKKLSLEKYQPIFEEQEVDMEAFLTLTDGDLKELGIKTDGSRQQILAAISELNAG

± gives the uncertainty stated by the source.

Variants of B1 are the subject of this data set. Put plainly: abundance fitness (aPCA) (normalised: wild type 0, dead -1); higher = more abundant; growth selection in yeast, the domain comes from the species named. As to conditions: Homo sapiens.
For DPDELTGILKKLSLEKYQPIFEEQEVDMEAFLTLTDGDLKELGIKTDGSRQQILAAISELNAG, the abundance fitness amounted to 0.112 ± 0.16. As for DWDELTGILKKLSLEKYQPIFEEQEVDMEAFLTLTDGDLKELGIKTDGSRQQILAAISELNAG, the figure is 0.143 ± 0.069. For the variant DNDELTGILKKLSLEKYQPIFEEQEVDMEAFLTLTDGDLKELGIKTDGSRQQILAAISELNAG, the abundance fitness was 0.047 ± 0.084. In the case of DTDELTGILKKLSLEKYQPIFEEQEVDMEAFLTLTDGDLKELGIKTDGSRQQILAAISELNAG it was 0.361 ± 0.23; in that of DQDELTGILKKLSLEKYQPIFEEQEVDMEAFLTLTDGDLKELGIKTDGSRQQILAAISELNAG, 0.11 ± 0.19; in that of DYDELTGILKKLSLEKYQPIFEEQEVDMEAFLTLTDGDLKELGIKTDGSRQQILAAISELNAG, 0.063 ± 0.078. As for DVDELTGILKKLSLEKYQPIFEEQEVDMEAFLTLTDGDLKELGIKTDGSRQQILAAISELNAG, the figure is -0.234 ± 0.065; as for DRDELTGILKKLSLEKYQPIFEEQEVDMEAFLTLTDGDLKELGIKTDGSRQQILAAISELNAG, 0.081 ± 0.072. Take DEDFLTGILKKLSLEKYQPIFEEQEVDMEAFLTLTDGDLKELGIKTDGSRQQILAAISELNAG: the abundance fitness is -0.05 ± 0.16.

Consider DEDLLTGILKKLSLEKYQPIFEEQEVDMEAFLTLTDGDLKELGIKTDGSRQQILAAISELNAG, for which the abundance fitness was -0.326 ± 0.053. In the case of DEDCLTGILKKLSLEKYQPIFEEQEVDMEAFLTLTDGDLKELGIKTDGSRQQILAAISELNAG it was -0.016 ± 0.065. As for DEDKLTGILKKLSLEKYQPIFEEQEVDMEAFLTLTDGDLKELGIKTDGSRQQILAAISELNAG, the figure is -0.452 ± 0.081.

Regarding DEDRLTGILKKLSLEKYQPIFEEQEVDMEAFLTLTDGDLKELGIKTDGSRQQILAAISELNAG, the abundance fitness is -0.602 ± 0.062. As for DEDMLTGILKKLSLEKYQPIFEEQEVDMEAFLTLTDGDLKELGIKTDGSRQQILAAISELNAG, the figure is -0.27 ± 0.19. For the variant DEDILTGILKKLSLEKYQPIFEEQEVDMEAFLTLTDGDLKELGIKTDGSRQQILAAISELNAG, the abundance fitness came out at 0.179 ± 0.15. Regarding DEDQLTGILKKLSLEKYQPIFEEQEVDMEAFLTLTDGDLKELGIKTDGSRQQILAAISELNAG, the abundance fitness was -0.619 ± 0.14. As for DEDTLTGILKKLSLEKYQPIFEEQEVDMEAFLTLTDGDLKELGIKTDGSRQQILAAISELNAG, the figure is -0.201 ± 0.066; as for DEDSLTGILKKLSLEKYQPIFEEQEVDMEAFLTLTDGDLKELGIKTDGSRQQILAAISELNAG, -0.148 ± 0.054.

DEDPLTGILKKLSLEKYQPIFEEQEVDMEAFLTLTDGDLKELGIKTDGSRQQILAAISELNAG: the abundance fitness is -0.619 ± 0.093. As for DEDGLTGILKKLSLEKYQPIFEEQEVDMEAFLTLTDGDLKELGIKTDGSRQQILAAISELNAG, the figure is -0.254 ± 0.054; as for DEDVLTGILKKLSLEKYQPIFEEQEVDMEAFLTLTDGDLKELGIKTDGSRQQILAAISELNAG, -0.215 ± 0.062. As for DEDNLTGILKKLSLEKYQPIFEEQEVDMEAFLTLTDGDLKELGIKTDGSRQQILAAISELNAG, the figure is -0.838 ± 0.17; as for DEDHLTGILKKLSLEKYQPIFEEQEVDMEAFLTLTDGDLKELGIKTDGSRQQILAAISELNAG, -0.31 ± 0.16; as for DEDDLTGILKKLSLEKYQPIFEEQEVDMEAFLTLTDGDLKELGIKTDGSRQQILAAISELNAG, -0.334 ± 0.079. On to DEDALTGILKKLSLEKYQPIFEEQEVDMEAFLTLTDGDLKELGIKTDGSRQQILAAISELNAG, for which the abundance fitness was -0.527 ± 0.078.

In the case of DEFELTGILKKLSLEKYQPIFEEQEVDMEAFLTLTDGDLKELGIKTDGSRQQILAAISELNAG, the abundance fitness was found to be 0.084 ± 0.12. In the case of DEPELTGILKKLSLEKYQPIFEEQEVDMEAFLTLTDGDLKELGIKTDGSRQQILAAISELNAG it was -0.177 ± 0.067; in that of DETELTGILKKLSLEKYQPIFEEQEVDMEAFLTLTDGDLKELGIKTDGSRQQILAAISELNAG, -0.118 ± 0.091; in that of DEGELTGILKKLSLEKYQPIFEEQEVDMEAFLTLTDGDLKELGIKTDGSRQQILAAISELNAG, -0.472 ± 0.098. As for DERELTGILKKLSLEKYQPIFEEQEVDMEAFLTLTDGDLKELGIKTDGSRQQILAAISELNAG, the figure is -0.064 ± 0.046.

With DEHELTGILKKLSLEKYQPIFEEQEVDMEAFLTLTDGDLKELGIKTDGSRQQILAAISELNAG, the abundance fitness was 0.2 ± 0.063. For the variant DECELTGILKKLSLEKYQPIFEEQEVDMEAFLTLTDGDLKELGIKTDGSRQQILAAISELNAG, the abundance fitness was determined as 0.057 ± 0.078. In the case of DEMELTGILKKLSLEKYQPIFEEQEVDMEAFLTLTDGDLKELGIKTDGSRQQILAAISELNAG it was 0.209 ± 0.08; in that of DEVELTGILKKLSLEKYQPIFEEQEVDMEAFLTLTDGDLKELGIKTDGSRQQILAAISELNAG, -0.267 ± 0.078. In the case of DEQELTGILKKLSLEKYQPIFEEQEVDMEAFLTLTDGDLKELGIKTDGSRQQILAAISELNAG it was 0.08 ± 0.056.

For the variant DEAELTGILKKLSLEKYQPIFEEQEVDMEAFLTLTDGDLKELGIKTDGSRQQILAAISELNAG, the abundance fitness is -0.157 ± 0.054. In the case of DEYELTGILKKLSLEKYQPIFEEQEVDMEAFLTLTDGDLKELGIKTDGSRQQILAAISELNAG it was 0.116 ± 0.086; in that of DESELTGILKKLSLEKYQPIFEEQEVDMEAFLTLTDGDLKELGIKTDGSRQQILAAISELNAG, 0.054 ± 0.05; in that of DEIELTGILKKLSLEKYQPIFEEQEVDMEAFLTLTDGDLKELGIKTDGSRQQILAAISELNAG, -0.082 ± 0.1.

DELELTGILKKLSLEKYQPIFEEQEVDMEAFLTLTDGDLKELGIKTDGSRQQILAAISELNAG: the abundance fitness is 0.133 ± 0.052. Take DEKELTGILKKLSLEKYQPIFEEQEVDMEAFLTLTDGDLKELGIKTDGSRQQILAAISELNAG: the abundance fitness turned out to be 0.162 ± 0.067.

Take DEEELTGILKKLSLEKYQPIFEEQEVDMEAFLTLTDGDLKELGIKTDGSRQQILAAISELNAG: the abundance fitness was -0.078 ± 0.082. As for DENELTGILKKLSLEKYQPIFEEQEVDMEAFLTLTDGDLKELGIKTDGSRQQILAAISELNAG, the figure is -0.074 ± 0.064.
